From US10100120B2, “Antibody which specifically binds to human CRTH2” (KYOWA HAKKO KIRIN CO., LTD, priority 2015, dated 2018)

Columns and labels:
[1] = target: T1, mutated human CRTH2 with amino acid substitution (Homo sapiens, UniProt Q9Y5Y4, R195A); experiment: Epitope analysis using CHO-S cells which express mutated human CRTH2 with amino acid substitution; format: binding; details: mutant R195A; antibody 10 μg/mL; relative to wild-type = 100%
T1 construct: inserting genes encoding various mutants with amino acid substitution obtained by deleting termination codons; expressed in transfected cells; host or cells: CHO-S cells (Lifetechnologies), transient (phmAG1-MNLinker vector)
T1 sequence (Q9Y5Y4 1-395 R195A): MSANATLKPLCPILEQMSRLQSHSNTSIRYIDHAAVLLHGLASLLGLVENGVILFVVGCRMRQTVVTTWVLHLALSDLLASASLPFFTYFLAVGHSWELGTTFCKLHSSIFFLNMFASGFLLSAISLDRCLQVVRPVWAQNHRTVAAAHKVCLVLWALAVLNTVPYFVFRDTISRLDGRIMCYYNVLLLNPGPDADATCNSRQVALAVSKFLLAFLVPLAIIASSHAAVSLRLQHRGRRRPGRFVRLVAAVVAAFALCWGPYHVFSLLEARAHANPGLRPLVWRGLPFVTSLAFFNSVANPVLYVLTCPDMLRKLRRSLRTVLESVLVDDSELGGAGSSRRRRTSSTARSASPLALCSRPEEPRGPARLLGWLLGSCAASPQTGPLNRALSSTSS
Procedure: (§1) A mutant with amino acid substitution expression vector obtained by partially substituting amino acid residues in an extracellular region with other amino acid residues among the amino acid sequences of human CRTH2 was prepared. Specifically, mutant with amino acid substitution expression vectors obtained by substitution of S2A; N4A; T6A and L7A; K8A, P9A, and L10A; P12A, L14A, and EISA; Q16E, R19H, and Q21R; H23A, S24A, and N25A; T26A, S27A, and I28A; D171A, T172A, and I173A; S174A, R175A, and L176A; D177A, G178A, and R179A; 1180A and M181A; Y183A, Y184A, and N185A; L187A, L188A, and L189A; N190A; P191A; G192A; P193A; D194A; R195A; D196A, and T198A; N275A, G277A, and L278A; P276A; P279A and L281A; P280A; or V282A, R283A, and R284A in the amino acid sequences represented by SEQ ID NO: 2 were respectively prepared. It should be noted that the above symbols in the amino acid substitution indicate [single letter code of an amino acid residue before substitution] [substitution position counting from the N terminal] [single letter code of the amino acid reside after substitution].
(§2) Azami-Green tag was added to the intercellular C terminal region by inserting genes encoding various mutants with amino acid substitution obtained by deleting termination codons to the restriction enzyme sites of BamHI and HindIII using phmAG1-MNLinker (MBL) as expression vectors.
(§3) The above-described vectors expressing mutants with amino acid substitution were prepared using 1) a method of entirely synthesizing gene sequences encoding mutants with amino acid substitution and inserting the gene sequences into a vector or 2) a method of performing site-specific mutation from a vector into which DNA which encodes the amino acid sequences of wild-type human CRTH2 represented by SEQ ID NO: 1 was inserted.
(§4) CHO-S cells (Lifetechnologies) were used for preparing mutated human CRTH2 with amino acid substitution expressing cell lines. Free style CHO expression medium (Invitrogen) containing 8 mM L-Glutamine (Invitrogen) was used for subculturing cells and the cells were cultured by shaking under the conditions of 37° C. in the presence of 5% CO2.
(§5) 25 μg of the mutated human CRTH2 with amino acid substitution expression vector prepared in (1) described above was dissolved in 400 μL of Opti-Pro SFM (Invitrogen) and 25 μL of a Freestyle MAX Reagent (Invitrogen) was dissolved in 400 μL of Opti-Pro SFM and each of them were allowed to stand at room temperature for 5 minutes. The two liquids were mixed with each other and allowed to stand at room temperature for 15 minutes. The mixed solution was added to the CHO-S culture solution and the cells were cultured for 24 hours, thereby obtaining cell lines which express mutated human CRTH2 with amino acid substitution.
(§6) The CHO-S cells which express mutated human CRTH2 with amino acid substitution established in (2) were washed with SM, seeded in a 96-well plate such that one well has 2×10^5 cells, and centrifuged at 1700 rpm for 2 minutes. After the supernatant was removed, chLym2, LV0HV1, the anti-human CRTH2 antibody hu19A2 v52, hu8B1 v1, ch3C12, or ch31A5 prepared in Example 9, or a commercially available anti-human CRTH2 antibody BM16 (Santa Cruz) prepared to have a concentration of 10 μg/mL using SM was added thereto to cause a reaction at 4° C. for 1 hour.
(§7) After the cells were washed, goat anti-Human IgG Alexa 647 (Molecular Probes) diluted with SM was added to wells to which chLym2, LV0HV1, hu19A2 v52, hu8B1 v1, ch3C12, or ch31A5 was added and goat anti-Rat IgG Alexa 647 (Molecular Probes) diluted with SM was added to wells to which BM16 was added at a final concentration of 10 μg/mL to cause a reaction at 4° C. for 1 hour.
(§8) After the reaction, the cells were washed and suspended with SM, and the fluorescent intensity was analyzed by flow cytometry (BD Biosciences, FACS CantoII). […]

[2] = target: T2, mutated human CRTH2 with amino acid substitution (Homo sapiens, UniProt Q9Y5Y4, D171A/I173A/T172A); experiment: as above; format: binding; details: mutant D171A, T172A, and I173A; antibody 10 μg/mL; relative to wild-type = 100%
T2 construct: inserting genes encoding various mutants with amino acid substitution obtained by deleting termination codons; expressed in transfected cells; host or cells: CHO-S cells (Lifetechnologies), transient (phmAG1-MNLinker vector)
T2 sequence (Q9Y5Y4 1-395 D171A/T172A/I173A): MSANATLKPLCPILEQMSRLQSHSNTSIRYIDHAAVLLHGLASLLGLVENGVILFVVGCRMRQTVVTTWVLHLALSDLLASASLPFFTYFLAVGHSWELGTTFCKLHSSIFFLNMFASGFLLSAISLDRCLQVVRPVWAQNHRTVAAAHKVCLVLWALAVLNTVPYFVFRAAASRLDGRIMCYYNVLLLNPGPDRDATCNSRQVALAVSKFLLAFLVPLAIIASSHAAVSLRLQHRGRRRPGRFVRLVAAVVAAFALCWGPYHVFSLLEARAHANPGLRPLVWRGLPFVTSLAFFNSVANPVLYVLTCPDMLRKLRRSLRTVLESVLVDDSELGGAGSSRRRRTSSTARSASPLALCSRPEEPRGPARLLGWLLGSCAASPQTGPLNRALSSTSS
Procedure: as §1, §2, §3, §4, §5, §6, §7, §8

- reactivity against cells expressing mutated human CRTH2 [1]: lost
- reactivity against cells expressing mutated human CRTH2 [2]: greatly decreased
B1: LV0HV1: humanized Lym2 antibody, VL LV0 (SEQ ID NO: 33), VH HV1 (SEQ ID NO: 51) (antibody, V domains shown)
VH: EVQLVESGGGVVQPGRSLRLSCAASGFTFSNYYMAWVRQAPGKGLEWVATISYDGSSTYYRDSVKGRFTISRDNAKNSLYLQMNSLRAEDTATYYCARHRGYYYSGAGYFDYWGQGTMVTVSS
VL: DIVMTQTPLSLPVTPGESASISCRSSQSLEYSDGYTYLEWYLQKPGQSPQVLIYGVSNRFSGVPDRFSGSGSGTDFTLKISRVEAEDVGVYYCFQATHDPLTFGQGTKLEIK
